In the RNAGym collection of RNA variant scans (doi:10.1073/pnas.2313332121):

B1: TPR t1 (parent)
chain: GACCAAUCUGCCCUCAGAGCUCGAGAACAUCUUCGGAUGCAGAGGAGGCAGGCUUCGGUGGCGCGAUAGCGCCAACGUCCUCAACCUCCAAUGCAUCCCACCACAUGAUGAUGCCUGAAGAGCCUUGGUUUUUUG

Variants of: B1
Experiment: polymerase ribozyme fitness, log enrichment relative to wild type (log ratio); higher = more active; in vitro selection for triplet polymerase activity
In short: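 Mutant libraries of each subunit of a heterodimeric triplet polymerase ribozyme were built by PCR and transcribed. Each library went through one round of in vitro selection in triplicate: annealing with biotinylated primer, partner subunit and triplets, frozen incubation at −7 °C, gel excision of extended constructs, streptavidin-bead capture and RT-PCR. Input and output libraries were Illumina-sequenced; only genotypes with ≥10 input reads and ≥1 read per output were kept. Fitness is log2(genotype enrichment/wild-type enrichment), using inverse-variance-weighted replicate averages.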

Variant | polymerase ribozyme fitness (log ratio)
A24G G60C C79A G122A | -5.59
U9C C72A A83U A90G U131C | 0.697
C98U C115A | -2
C11A G60U | -0.589
A5U C12U | 0.00871
A50G G110U | -0.639
A74C G120U | 0.00369
C11G C34U C49A G61A C123U | -2.15
C12U G52A U112A G120A | 1.03
U33G G61A A121U G127U U133A | -3.67
U112C A121G | 2.63
A29G G60A C86U | -2.06
A16C A41U G52C C64G C82G G110C | -6.92
C72U C94G | -1.95
U67C A105U | -4.9
G39C A43G C124U | -0.831
G36U U106G G120A | -1.89
C11G A18G C89U U96A | -4.23
G42A C49G C72A C94U U130A U132C | -3.26
G39A G48A A100C G120A | -1.06
C8A C115U | -0.595
G48A G128U | -2.69
G71C A83U | -1.19
G58C C85U C123G U132A | 1.38

Variant | polymerase ribozyme fitness (log ratio)
U7C C62A G110A A119C | -4.23
U59C C70U C85A | -2.04
C13G G51C G69U U78G | -2.43
C76A C123G | -0.164
A24C G65A C85A C101G G113C | -6.86
C101A G117A | -2.65
U87A A121C | 1.23
G44A C56U | -0.878
U81A C88U | -0.655
C12A G17U C20A G42A G45U A90G C123A | -4.53
G47A C56U C94U | -1.1
A29U A43U | -3.3
C70U C102A C124G | -1.09
G10A C70G G120U | -1.35
C49U C62U G77A U78G C80G A90C G107U C115G G120C | -7.16
C56G G135A | -1.39
A37G G71U | -1.09
A6C G48U C53U U59G C64U A95G | -3.63
G42A C99U | -6.05
A27G A29C G36A A46C C72G U106C U112G U116A | -7.34
U7C G42C C88U C115U U133A | -0.576
A2C G71A | -2.36
G48U U92G | -3.54
U30G A43C C104A A111U | -6.22

Variant | polymerase ribozyme fitness (log ratio)
G61U C82A C89G C101A C102A U112C C123A | -7.12
C28U C72G G110C | -1.52
C15U A83G U87C | -2.34
C3U G61A A91U | -1.66
C3U U87G | -0.293
U9G G69C | -2.16
G39C G47C | -3.08
C22G U96C | -3.36
A74G C101U | 0.132
U81C A121G | 0.253
C3U C8U G71U C88U G117C | -4.1
A5C G42U G61C U78G C80A A84U C104G G113C A119U U125C U133A | -7.58
A37C G63A | -0.905
C20A C49G U106C | -3.68
C98U A118C | -4.03
C3U C40U A43G C53U C124U | -1.48
C79A G117C | -5.12
A46U G77A C123A U129A | -2.69
C22U G69A C104G A111C | -7.35
G57C G63A G69U | -1.39
C53G G120U | -0.149
C53G G77C | -0.807
C34A G52U C53U A90U U106A | -4.54
G36U A118G G128A | -3.98

Variant | polymerase ribozyme fitness (log ratio)
C15A U54A C56G | -3.37
G61A C79U C104A C124A | 0.783
C97U G127A | -1.48
C28U G47U C97U C101U A103G G117C | -7.85
C20U C22A | -3.94
U9C C98G | -5.05
A5U U14G U59A C62U | -2.15
C40G U59A C86U A100U | -4.58
U96A A121C | 1.1
G51U G71C U78C C114A | -7.09
C4U C20A G120U | -3.69
A43U C49G U78A C115A | -3.44
G60U C62G U92C | -2.78
C11A | -1.27
C20U G42C | -2.14
A90G G113U A118C | -4.53
A18U G48U G52U G69U C79G | -2.76
G35C U59G C76A C98A | -5.8
C4U C8G U33G C85G C94U | -6
G36C A91C | -1.87
G36A C114A | -2.96
A18U A90C G122A | -2.49
U7A C15A A41C A66C | -4.5
A2C A41U U78G | -3.61

Variant | polymerase ribozyme fitness (log ratio)
C94A G117C | -4.31
C3U G48C G61U | -0.989
A6U G45A G52A A75U | -0.0939
A24U A43C G60C A84U G110C U129A | -6.86
G63U C70U | -0.91
U38A C72G C86U G135U | -3.57
U7C G93A | -1.65
C104U U112G U116C | -1.98
U54G G63U C88U C89A A103U G122U C124A | -7.39
G61C C79A C80U | -4.17
A18U C20G G61A | -6.8
C4A C86A | -2.74
G63C C124U | 0.611
C11G G120A | 1.51
U9G C99U | -2.87
U106A G107U U116C | -7.47
U109G G113A G127C | -6.26
A37U U125G | -1.07
C12A C70U | -0.454
A43U G71U A91G | -2.96
A6C C22G A43C U59A U87C A118G | -5.18
G39A C115A | -0.711
G61C C89U | -1.58
C31U A66C U78G U106A C123A | -2.21

Variant | polymerase ribozyme fitness (log ratio)
G17A G71A C72U C94G C123G | -5.54
U112C G117A | -0.498
U7A G36C G52A U55G | -0.803
C12U U14A | -2.23
C101A C114A | -2.19
G107A G113C | -5.82
C13A G61A | -1.81
G19U G39U G93A U106C G120U | -5.8
U21G C62G C101U | -5
A50U C53A U55C C73U | -0.723
C22U C53A C72U C98U C123U | -4.73
C40U C88A C114G | -2.99
A18U C28U G51A U59G G117C | -6.92
G63C A100U G110A C115G | -6.05
C73A U132A | 0.117
C8G C13A C85U G135U | -1.16
C13U A37G C101U | -0.644
C8G C49G C89G | -1.42
G25A A66U C70G G110C | -6.93
C12U G47U C86G G122A | 0.433
C72U A90C | -1.33
C12A C13A U55A G63U U131A | -2.53
C94G G110A | -2.23
C11A A26G G71C C101A C114U | -6.79

Variant | polymerase ribozyme fitness (log ratio)
C12A G45U C56U G93A | -2.57
A68U C124U | -5.86
C53G U112A | 0.666
U9A C11A C56A A95G U106A C123U | 1.46
C8G C80A A90U G128C U129G | -4.56
G42U A43G G45U U55G C72A | -0.969
U38G A41U C62U | -3.01
C13U A50G C85G C123G | -0.185
U7G U92A | -2.22
A100G G120U | -3.45
C8U C53G | -0.0198
U21C G48C A90U G117C G127C | -5.55
C115U G127C | -2.76
A2U G36U A41U U54G | -6.42
A2C A6C C8A G71A A84U U129A | -2.03
U54A C98G U112C | -3.86
C56G C62U | 0.102
C12G C70U U106A | 0.277
C62U A118G | 0.164
C22U A37C | -4.23
U78C C80U C99U A121G | -3.12
G69U A105C | -0.532
C80A U130C | -2.51
